Assays:
[1] = molecular target: wildtype feline IL-31 (Feline_IL31_wildtype) (feline)
[2] = molecular target: canine IL-31 (Canine_IL31) (canine)
[3] = molecular target: wildtype feline IL-31 (Feline_IL31_wildtype) (feline); assay: cell-based or functional assay
[4] = molecular target: canine IL-31 (Canine_IL31) (canine); assay: cell-based or functional assay
[5] = molecular target: wildtype feline IL-31 (Feline_IL31_wildtype) (feline); assay: indirect ELISA, coated IL-31
[6] = molecular target: feline IL-31 15H05 mutant (Feline_IL31_15H05 mutant) (feline); assay: indirect ELISA, coated IL-31
[7] = molecular target: wildtype feline IL-31 (Feline_IL31_wildtype) (feline); assay: SPR (Biacore), immobilised IL-31, 1:1 fit
[8] = molecular target: canine IL-31 (Canine_IL31) (canine); assay: SPR (Biacore), immobilised IL-31, 1:1 fit

canine IL-31 (Canine_IL31) (canine), sequence (chain, as listed by the source limits assumed, form in doubt): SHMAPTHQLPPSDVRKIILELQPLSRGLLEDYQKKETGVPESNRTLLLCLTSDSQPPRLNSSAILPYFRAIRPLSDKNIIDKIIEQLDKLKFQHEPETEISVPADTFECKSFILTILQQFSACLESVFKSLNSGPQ
feline IL-31 15H05 mutant (Feline_IL31_15H05 mutant) (feline), sequence (chain, as listed by the source mutant limits assumed, form in doubt): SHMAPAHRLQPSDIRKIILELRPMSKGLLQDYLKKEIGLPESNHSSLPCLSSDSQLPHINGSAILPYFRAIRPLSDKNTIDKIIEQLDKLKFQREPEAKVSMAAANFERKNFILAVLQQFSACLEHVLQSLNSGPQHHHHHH
wildtype feline IL-31 (Feline_IL31_wildtype) (feline), sequence (chain, as listed by the source limits assumed, form in doubt): as the sequence (chain, as listed by the source mutant limits assumed, form in doubt) above, with A103P, A105D counted along it

Binder	IC50, inhibition of feline IL-31-induced STAT3 phosphorylation, feline FCWF4 cells [1] [µg/mL]	Binding (ELISA OD) [5] [OD]	Binding (ELISA OD) [6] [OD]	IC50, inhibition of feline IL-31-induced STAT3 phosphorylation, canine DH82 cells [1] [µg/mL]	Kd [7] [nM]	koff [7] [s⁻¹]	kon [7] [M⁻¹ s⁻¹]	Kd [8] [nM]	koff [8] [s⁻¹]	kon [8] [M⁻¹ s⁻¹]	further results
15H05 mouse: canine chimera (antibody) heavy: QVQLQQSAAELARPGASVKMSCKTSGYTFTSYTIHWIKQRPGQGLEWIGNINPTSGYTENNQRFKDKTTLTVDRSSNTAYLQLHSLTSEDSAVYFCARWGFKYDGEWSFDVWGAGTTVTVSSASTTAPSVFPLAPSCGSTSGSTVALACLVSGYFPEPVTVSWNSGSLTSGVHTFPSVLQSSGLYSLSSMVTVPSSRWPSETFTCNVAHPASKTKVDKPVPKRENGRVPRPPDCPKCPAPEMLGGPSVFIFPPKPKDTLLIARTPEVTCVVVDLDPEDPEVQISWFVDGKQMQTAKTQPREEQFNGTYRVVSVLPIGHQDWLKGKQFTCKVNNKALPSPIERTISKARGQAHQPSVYVLPPSREELSKNTVSLTCLIKDFFPPDIDVEWQSNGQQEPESKYRTTPPQLDEDGSYFLYSKLSVDKSRWQRGDTFICAVMHEALHNHYTQESLSHSPGK light: DIQMNQSPSSLSASLGDTITVTCRASQGISIWLSWYQQKPGNIPKVLINKASNLHIGVPPRFSGSGSGTHFTLTITSLQPEDIATYYCLQSQTYPLTFGGGTKLEINRNDAQPAVYLFQPSPDQLHTGSASVVCLLNSFYPKDINVKWKVDGVIQDTGIQESVTEQDKDSTYSLSSTLTMSSTEYLSHELYSCEITHKSLPSTLIKSFQRSEC	3.11										IC50, inhibition of canine IL-31-induced STAT3 phosphorylation, canine DH82 cells [2]: 12.7 µg/mL; IC50, feline IL-31 signaling on the canine DH82 cell line (pSTAT3) [3]: 0.71 µg/ml; IC50 against canine IL-31 (pSTAT3; cell type not clear) [4]: 12.5 µg/ml
ZIL159 (antibody, V domains shown) VH: EVQLVESGGDLVKPAGSLRLSCVASGFTFSSYVMTWVRQAPGKGLQWVAGINSEGSRTAYADAVKGRFTISRDNAKNTLYLQIDSLRAEDTAIYYCATGDIVATGTSYWGQGTLVTVSS VL: SNVLTQPPSVSVSLGQTATISCSGETLNRFYTQWFQQKAGQAPVLVIYKDTERPSGIPDRFSGSSSGNIHTLTISGARAEDEAAYYCKSAVSIDVGVFGGGTHLTVFR		1.6	1.31								
ZIL171 (antibody, V domains shown) VH: EVQLVESGGDLVKPAGSLRLSCVASGFTFRTYVMNWVRQAPGKGLQWVASINGGGSSPTYADAVRGRFTVSRDNAQNSLFLQMNSLRAEDTAIYFCVVSMVGPFDYWGHGTLVTVSS VL: SSVLTQPPSVSVSLGQTATISCSGKSLSYYYAQWFQQKAGQAPVLVIYKDTERPSGIPDRFSGSSSGNTHTLTISGARAEDEADYYCESAVSSDTIVFGGGTHLTVLR		1.42	0.93								
ZIL154 (antibody, V domains shown) VH: EVHLVESGGDLVKPWGSLRLSCVASGFTFSDRGMSWVRQSPGKGLQWVAYIRYDGSRTDYADAVEGRFTISRDNAKNTLYLQMNSLRAEDTAVYYCARWDGSSFDYWGQGTLVTVSS VL: DIVVTQTPLSLSVSPGETASFSCKASQSLLHSDGNTYLDWFRQKPGQSPQRLIYKVSNRDPGVPDRFSGSGSGTDFTLRISGVEADDAGLYYCMQAIHFPLTFGAGTKVELKR		1.62	1.38								
mouse anti IL-31 antibody 11E12 (antibody, V domains shown) VH: QVQLQQSGAELVKPGASVKLSCKASGYTFKYYDINWVRQRPEQGLEWIGWIFPGDGGTKYNETFKGKATLTTDKSSSTAYMQLSRLTSEDSAVYFCARGGTSVIRDAMDYWGQGTSVTVSS VL: DIVLTQSPASLAVSLGQRATISCRASESVDNYGISFMHWYQQKPGQPPKLLIYRASNLESGIPARFSGSGSRTDFTLTINPVETDDVATYYCQQSNKDPLTFGAGTKLELK	2.01	1.15	1.33	2.47	0.738	0.000123	167000	0.000763	4.8e-07	629000	
mouse: feline 15H05 chimera (antibody) heavy: QVQLQQSAAELARPGASVKMSCKTSGYTFTSYTIHWIKQRPGQGLEWIGNINPTSGYTENNQRFKDKTTLTVDRSSNTAYLQLHSLTSEDSAVYFCARWGFKYDGEWSFDVWGAGTTVTVSSASTTAPSVFPLAPSCGTTSGATVALACLVLGYFPEPVTVSWNSGALTSGVHTFPAVLQASGLYSLSSMVTVPSSRWLSDTFTCNVAHPPSNTKVDKTVRKTDHPPGPKPCDCPKCPPPEAAGAPSIFIFPPKPKDTLSISRTPEVTCLVVDLGPDDSDVQITWFVDNTQVYTAKTSPREEQFNSTYRVVSVLPILHQDWLKGKEFKCKVNSKSLPSPIERTISKAKGQPHEPQVYVLPPAQEELSRNKVSVTCLIKSFHPPDIAVEWEITGQPEPENNYRTTPPQLDSDGTYFVYSKLSVDRSHWQRGNTYTCSVSHEALHSHHTQKSLTQSPGK light: DIQMNQSPSSLSASLGDTITVTCRASQGISIWLSWYQQKPGNIPKVLINKASNLHIGVPPRFSGSGSGTHFTLTITSLQPEDIATYYCLQSQTYPLTFGGGTKLEINRSDAQPSVFLFQPSLDELHTGSASIVCILNDFYPKEVNVKWKVDGVVQNKGIQESTTEQNSKDSTYSLSSTLTMSSTEYQSHEKFSCEVTHKSLASTLVKSFQRSECQRE	3.25			5.59				0.0129	1.62e-07	12600	IC50 against feline IL-31 induced pSTAT3 signaling in feline FCWF4 cells, against mouse: feline 11E12 chimera [3]: 2 fold; IC50 against canine IL-31 (pSTAT3; cell type not clear) [4]: 28.6 µg/ml
Feline 11E12 1.1 (antibody, V domains shown) VH: QVLLVQSGAEVKKPGASVKIFCKASGYSFTYYDINWLRQAPEQGLEWMGWIFPGDGGTKYNETFKGRLTLTADTSTNTVYMELSSLRSADTAMYYCARGGTSVIRDAMDYWGQGALVTVSS VL: EIQMTQSPSSLSASPGDRVTITCRASESVDNYGISFMHWYQQKPGKVPKLLIYRASNLESGVPSRFSGSGSGTDFTLTISSLEPEDAATYYCQQSNKDPLTFGQGT					22.2	0.000444	20000	0.764	0.000141	185000	potency against feline IL-31 in the feline FCWF assay, against the mouse version [3]: 2 fold
mouse anti IL-31 antibody 15H05 (antibody, V domains shown) VH: QVQLQQSAAELARPGASVKMSCKTSGYTFTSYTIHWIKQRPGQGLEWIGNINPTSGYTENNQRFKDKTTLTVDRSSNTAYLQLHSLTSEDSAVYFCARWGFKYDGEWSFDVWGAGTTVTVSS VL: DIQMNQSPSSLSASLGDTITVTCRASQGISIWLSWYQQKPGNIPKVLINKASNLHIGVPPRFSGSGSGTHFTLTITSLQPEDIATYYCLQSQTYPLTFGGGTKLEIN	4.26	1.94	0.05	2.7	0.348	1.69e-05	48400	0.00487	6.56e-07	135000	IC50, inhibition of canine IL-31-induced STAT3 phosphorylation, canine DH82 cells [2]: 11.2 µg/mL; IC50, inhibition of canine IL-31-induced STAT3 phosphorylation, feline FCWF4 cells [2]: 25.7 µg/mL
ZIL94 (antibody, V domains shown) VH: EVQLVDSGGDLVKPGGSLRLSCVASGFTFSTYFMSWVRQAPGRGLQWVALISSDGSGTYYADAVKGRFTISRDNAKNTLYLQMNSLRAEDTAMYYCAIFWRAFNDWGQGTLVTVSS VL: QTVVIQEPSLSVSPGGTVTLTCGLNSGSVSTSNYPGWYQQTRGRTPRTIIYDTGSRPSGVPNRFSGSISGNKAALTITGAQPEDEADYYCSLYTDSDILVFGGGTHLTVLR		1.67	1.3								

Source: US20190282704A1
